In general, Kd refers to the constant that tells how readily two partners part at equilibrium. The koff is the rate constant with which the complex falls apart. For orientation: kon means the rate constant with which the complex forms. For orientation: EC50 means the midpoint of the concentration-response curve. As usually defined, the EC50 (read off the curve) is the midpoint of the concentration-response curve.

Consider seven substances from patent US20240016892A1.

Experiment [1] addresses recombinant human LTβR (human) (UniProt P36941). The experiment can be described thus: BLI (Octet-Red96), tagged rhLTβR immobilised on biosensor. (Biolayer interferometry detects binding as a change in optical thickness at a sensor tip.)
Experiment [2] has as its target recombinant human HVEM (human) (UniProt Q92956). Briefly: BLI (Octet-Red96), tagged rhHVEM immobilised on biosensor.
Experiment [3] has as its target human 4-1BB-His (human) (UniProt Q07011). The experiment can be described thus: MSD 'Human 41BB-Binding Assay': coat h41BB-His (R&D), detect anti-41BBL (R&D), anti-Goat Sulfo; positive control.
The target in a further experiment is mouse CD47-Fc (mouse) (UniProt Q61735). The experiment can be described thus: MSD dual-binding sandwich: coat mCD47-Fc (Acro); detect m41BB-His (Acro); anti-His Biotin + Streptavidin Sulfo; labelled Negative Control.
Chain of mouse CD47-Fc (mouse) (Q61735 19-140 limits assumed): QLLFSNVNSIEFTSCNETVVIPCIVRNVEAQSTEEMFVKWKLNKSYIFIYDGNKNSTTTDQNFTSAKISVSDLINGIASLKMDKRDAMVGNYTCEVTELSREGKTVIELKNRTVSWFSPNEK
The target of experiment [4] is recombinant human PVR (human) (UniProt P15151). Briefly: BLI (Octet-Red96), tagged rhPVR immobilised on biosensor.
Chain of recombinant human PVR (human) (P15151 21-343 limits assumed): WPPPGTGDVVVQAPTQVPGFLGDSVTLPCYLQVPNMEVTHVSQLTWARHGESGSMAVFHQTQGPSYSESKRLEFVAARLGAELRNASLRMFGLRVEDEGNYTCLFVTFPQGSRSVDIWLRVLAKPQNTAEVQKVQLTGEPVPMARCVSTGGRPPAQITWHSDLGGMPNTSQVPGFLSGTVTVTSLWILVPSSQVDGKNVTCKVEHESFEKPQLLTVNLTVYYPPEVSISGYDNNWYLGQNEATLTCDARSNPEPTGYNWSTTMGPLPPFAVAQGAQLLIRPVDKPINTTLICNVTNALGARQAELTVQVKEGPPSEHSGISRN
Experiment [5] has as its target recombinant human HVEM-Fc (human) (UniProt Q92956). The experiment can be described thus: MSD sandwich: capture HVEM-Fc; detection PVR-Biotin.
The target of experiment [6] is recombinant human LTβR-Fc (human) (UniProt P36941). Briefly: MSD sandwich: capture LTβR-Fc; detection PVR-Biotin.
Chain of recombinant human LTβR-Fc (human) (P36941 31-227 limits assumed): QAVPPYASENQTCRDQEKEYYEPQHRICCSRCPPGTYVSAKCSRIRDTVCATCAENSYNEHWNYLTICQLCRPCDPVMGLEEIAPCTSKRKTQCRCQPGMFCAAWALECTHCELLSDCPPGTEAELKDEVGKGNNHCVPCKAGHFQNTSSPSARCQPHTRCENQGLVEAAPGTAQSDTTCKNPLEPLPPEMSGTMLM
The target of experiment [7] is human 4-1BB-His (human) (UniProt Q07011). The experiment can be described thus: MSD 'Human 41BB-Binding Assay': coat h41BB-His (R&D), detect anti-41BBL (R&D), anti-Goat Sulfo; negative control, fit value for a curve that stays near the baseline.
Chain of human 4-1BB-His (human) (Q07011 24-186 limits assumed): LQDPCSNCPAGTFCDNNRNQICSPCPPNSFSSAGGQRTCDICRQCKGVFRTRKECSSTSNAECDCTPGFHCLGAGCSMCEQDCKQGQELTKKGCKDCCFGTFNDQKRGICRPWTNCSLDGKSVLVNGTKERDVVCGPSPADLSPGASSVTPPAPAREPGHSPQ
The next experiment concerns the target mouse 4-1BB-His (mouse) (UniProt P20334). Briefly: MSD: coat m41BB-His (Acro); detection anti-mouse Sulfo (MSD); labelled Negative Control, flat curve.
The next experiment deals with mouse CD47-His (mouse) (UniProt Q61735). The experiment can be described thus: MSD: coat mCD47-His (Acro); detection anti-mouse Sulfo (MSD); labelled Positive Control.
Chain of mouse CD47-His (mouse) (Q61735 19-140 limits assumed): as the sequence (Q61735 19-140 limits assumed) above

Chain of recombinant human HVEM (human) (Q92956 39-202 limits assumed): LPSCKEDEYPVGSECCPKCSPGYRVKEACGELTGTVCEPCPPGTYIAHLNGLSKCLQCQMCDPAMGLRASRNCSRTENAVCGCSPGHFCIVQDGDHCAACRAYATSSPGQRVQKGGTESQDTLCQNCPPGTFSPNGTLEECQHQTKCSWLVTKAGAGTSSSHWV
Chain of recombinant human LTβR (human) (P36941 31-227 limits assumed): as the sequence (P36941 31-227 limits assumed) above
Chain of mouse 4-1BB-His (mouse) (P20334 24-187 limits assumed): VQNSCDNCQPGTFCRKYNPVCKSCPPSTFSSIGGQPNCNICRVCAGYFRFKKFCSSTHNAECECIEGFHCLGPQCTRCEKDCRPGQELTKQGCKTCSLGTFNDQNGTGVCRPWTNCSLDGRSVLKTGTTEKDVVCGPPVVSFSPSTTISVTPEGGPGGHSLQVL
Chain of recombinant human HVEM-Fc (human) (Q92956 39-202 limits assumed): as the sequence (Q92956 39-202 limits assumed) above

“Fc-LIGHT single-sided fusion protein control (Fc fusion)”: in experiment [1], the equilibrium dissociation constant (Kd) is 28.4 nM, the koff stood at 0.00754 s⁻¹ and the kon amounted to 266000 M⁻¹ s⁻¹. In [2], the Kd was 2.12 nM, the koff was determined as 0.000876 s⁻¹ and the kon came to 410000 M⁻¹ s⁻¹.
For “PD-1-Fc-4-1BBL chimeric protein (as used in Example 14) (Fc fusion)”, the EC50 in the experiment with human 4-1BB-His (human) [3] amounted to 0.63 nM.
As for “PD-1-Fc-4-1BBL chimeric protein (as used in Example 15) (Fc fusion)”, in the experiment with mouse CD47-Fc (mouse), the EC50 worked out at 45000 nM.
“TIGIT-Fc single-sided fusion protein control (Fc fusion)”: in experiment [4], the Kd stood at 5.24 nM, the koff was 0.00154 s⁻¹ and the kon was 296000 M⁻¹ s⁻¹.
As to “TIGIT-Fc(IgG1)-LIGHT chimeric protein (Fc fusion)”, the EC50 (read off the curve) worked out at 5 nM in experiment [5] and 3 nM in experiment [6].
As for “hSIRPα-Fc-CD40L chimeric protein (Fc fusion)”, in the experiment with human 4-1BB-His (human) [7], the EC50 worked out at 143 nM.
As to “mSIRPα-Fc-CD40L chimeric protein (Fc fusion)”, the EC50 came to 5350 nM in the experiment with mouse 4-1BB-His (mouse) and 0.369 nM with mouse CD47-His (mouse).
